Experimental data: patent US20070286858A1

Assays:
[1] = molecular target: human RAGE, full length (human) (UniProt Q15109); experiment: cell-based ELISA, 293 cells transfected with human RAGE
[2] = molecular target: cynomolgus monkey RAGE (cynomolgus monkey (Macaca fascicularis)); experiment: cell-based ELISA, 293 cells transfected with cynomolgus monkey RAGE
hLox1-Fc (human) = hLox1-Fc (human) (UniProt P78380); experiment: direct binding ELISA, receptor coated at 1 µg/ml, antibody at 20 µg/ml
[3] = molecular target: human RAGE-Fc fusion protein (human) (UniProt Q15109); experiment: as above
mLox1-Fc (mouse) = mLox1-Fc (mouse) (UniProt Q9EQ09); experiment: as above
Chain of mLox1-Fc (mouse) (Q9EQ09 60-363): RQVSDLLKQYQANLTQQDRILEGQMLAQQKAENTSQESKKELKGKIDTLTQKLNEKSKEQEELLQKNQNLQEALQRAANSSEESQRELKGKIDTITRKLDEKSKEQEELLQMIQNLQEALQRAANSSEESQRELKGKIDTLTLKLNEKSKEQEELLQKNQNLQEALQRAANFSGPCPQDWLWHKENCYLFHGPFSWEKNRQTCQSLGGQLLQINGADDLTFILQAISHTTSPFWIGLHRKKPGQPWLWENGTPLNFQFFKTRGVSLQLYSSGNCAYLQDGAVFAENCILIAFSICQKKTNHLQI

rhB7-H1-Fc (human) = rhB7-H1-Fc (human) (UniProt Q9NZQ7); experiment: as above
Chain of rhB7-H1-Fc (human) (Q9NZQ7 19-239): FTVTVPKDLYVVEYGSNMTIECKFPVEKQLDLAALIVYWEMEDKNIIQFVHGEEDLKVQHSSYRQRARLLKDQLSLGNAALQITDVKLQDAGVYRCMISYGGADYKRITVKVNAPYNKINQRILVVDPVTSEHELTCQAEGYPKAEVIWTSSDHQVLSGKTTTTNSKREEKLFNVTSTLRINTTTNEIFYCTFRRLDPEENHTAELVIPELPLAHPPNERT

rhICAM-1-Fc (human) = rhICAM-1-Fc (human) (UniProt P05362); experiment: as above
Chain of rhICAM-1-Fc (human) (P05362 28-480): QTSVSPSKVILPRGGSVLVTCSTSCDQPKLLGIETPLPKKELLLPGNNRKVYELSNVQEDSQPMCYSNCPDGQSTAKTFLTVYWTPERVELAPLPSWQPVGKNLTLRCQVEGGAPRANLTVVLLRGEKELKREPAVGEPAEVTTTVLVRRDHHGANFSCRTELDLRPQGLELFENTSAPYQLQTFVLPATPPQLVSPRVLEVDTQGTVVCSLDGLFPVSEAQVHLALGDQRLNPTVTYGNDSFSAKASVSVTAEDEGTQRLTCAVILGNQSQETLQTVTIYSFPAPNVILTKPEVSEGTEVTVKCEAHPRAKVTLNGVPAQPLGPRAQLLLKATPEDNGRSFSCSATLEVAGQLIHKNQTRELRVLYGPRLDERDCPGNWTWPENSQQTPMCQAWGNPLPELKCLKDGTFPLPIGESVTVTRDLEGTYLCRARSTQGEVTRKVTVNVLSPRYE

rhNCAM-1 (human) = rhNCAM-1 (human) (UniProt P13591); experiment: as above
Chain of rhNCAM-1 (human) (P13591 other isoform, or with tags, fused parts or gaps limits assumed): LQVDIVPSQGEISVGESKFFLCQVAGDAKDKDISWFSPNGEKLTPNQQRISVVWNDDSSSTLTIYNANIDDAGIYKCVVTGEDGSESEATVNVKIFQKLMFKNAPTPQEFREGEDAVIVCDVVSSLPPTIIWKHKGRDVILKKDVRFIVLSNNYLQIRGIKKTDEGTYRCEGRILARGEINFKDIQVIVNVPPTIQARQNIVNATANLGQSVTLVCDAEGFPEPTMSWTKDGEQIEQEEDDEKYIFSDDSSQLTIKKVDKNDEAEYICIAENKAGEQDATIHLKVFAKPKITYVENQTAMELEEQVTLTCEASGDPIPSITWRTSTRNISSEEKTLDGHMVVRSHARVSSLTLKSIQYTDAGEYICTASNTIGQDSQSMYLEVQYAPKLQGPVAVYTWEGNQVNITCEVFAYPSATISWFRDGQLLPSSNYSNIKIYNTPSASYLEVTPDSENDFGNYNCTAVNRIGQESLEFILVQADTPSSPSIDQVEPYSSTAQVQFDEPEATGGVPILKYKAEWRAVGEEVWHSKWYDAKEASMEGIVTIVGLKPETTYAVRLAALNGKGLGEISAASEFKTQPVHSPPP

[4] = molecular target: rhTLR4 (C-terminal His tag) (human) (UniProt O00206); experiment: as above
Chain of rhTLR4 (C-terminal His tag) (human) (O00206 24-631 limits assumed): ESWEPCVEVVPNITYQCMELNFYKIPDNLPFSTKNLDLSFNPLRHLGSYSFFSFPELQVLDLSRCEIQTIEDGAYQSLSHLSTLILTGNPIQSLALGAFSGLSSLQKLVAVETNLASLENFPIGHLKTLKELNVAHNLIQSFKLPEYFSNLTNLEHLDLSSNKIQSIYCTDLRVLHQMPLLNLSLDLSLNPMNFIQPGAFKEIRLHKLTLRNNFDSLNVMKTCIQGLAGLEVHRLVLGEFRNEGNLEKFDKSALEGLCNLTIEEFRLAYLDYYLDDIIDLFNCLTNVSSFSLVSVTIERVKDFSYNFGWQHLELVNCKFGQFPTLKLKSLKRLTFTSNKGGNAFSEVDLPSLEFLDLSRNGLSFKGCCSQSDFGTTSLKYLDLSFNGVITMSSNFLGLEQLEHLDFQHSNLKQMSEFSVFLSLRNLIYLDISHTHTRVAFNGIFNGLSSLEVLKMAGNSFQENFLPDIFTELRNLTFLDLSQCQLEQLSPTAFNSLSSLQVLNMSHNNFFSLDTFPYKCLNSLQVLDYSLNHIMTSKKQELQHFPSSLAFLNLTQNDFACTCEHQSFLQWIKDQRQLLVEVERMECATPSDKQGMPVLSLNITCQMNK

rhVCAM-1 (human) = rhVCAM-1 (human) (UniProt P19320); experiment: as above
Chain of rhVCAM-1 (human) (P19320 25-698 limits assumed): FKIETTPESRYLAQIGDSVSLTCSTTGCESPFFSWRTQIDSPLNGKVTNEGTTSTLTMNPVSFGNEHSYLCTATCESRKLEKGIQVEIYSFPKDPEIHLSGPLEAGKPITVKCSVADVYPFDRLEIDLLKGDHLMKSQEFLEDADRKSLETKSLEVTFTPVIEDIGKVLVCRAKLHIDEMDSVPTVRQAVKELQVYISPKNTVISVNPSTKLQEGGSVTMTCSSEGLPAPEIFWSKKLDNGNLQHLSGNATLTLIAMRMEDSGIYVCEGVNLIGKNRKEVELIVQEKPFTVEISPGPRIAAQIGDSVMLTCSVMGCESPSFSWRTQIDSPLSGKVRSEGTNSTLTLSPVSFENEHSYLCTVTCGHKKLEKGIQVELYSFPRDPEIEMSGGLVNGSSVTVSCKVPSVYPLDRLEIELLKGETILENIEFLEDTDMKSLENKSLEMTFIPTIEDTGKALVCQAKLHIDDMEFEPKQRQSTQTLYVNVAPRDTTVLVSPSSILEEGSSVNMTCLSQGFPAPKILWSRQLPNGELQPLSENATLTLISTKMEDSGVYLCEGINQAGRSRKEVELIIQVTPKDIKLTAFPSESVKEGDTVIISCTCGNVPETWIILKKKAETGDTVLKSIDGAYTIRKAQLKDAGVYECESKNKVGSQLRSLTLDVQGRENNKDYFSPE

[5] = molecular target: soluble human streptavidin-tagged RAGE (human) (UniProt Q15109); experiment: BIACORE capture assay, antibody on CM5 chip, hRAGE-SA 0-100 nM in solution
[6] = molecular target: human RAGE-Fc fusion protein (human) (UniProt Q15109); experiment: antibody competition ELISA on hRAGE-Fc; competitor biotinylated XT-M4
[7] = molecular target: soluble human streptavidin-tagged RAGE (human) (UniProt Q15109); experiment: BIACORE capture, hRAGE-SA over captured antibody, 1:1 Langmuir global fit, FC3
[8] = molecular target: murine RAGE-strep tag fusion protein (mouse) (UniProt Q62151); experiment: BIACORE capture, SA-Mu RAGE over captured antibody, 1:1 Langmuir global fit, FC2
Chain of murine RAGE-strep tag fusion protein (mouse) (Q62151 other isoform, or with tags, fused parts or gaps): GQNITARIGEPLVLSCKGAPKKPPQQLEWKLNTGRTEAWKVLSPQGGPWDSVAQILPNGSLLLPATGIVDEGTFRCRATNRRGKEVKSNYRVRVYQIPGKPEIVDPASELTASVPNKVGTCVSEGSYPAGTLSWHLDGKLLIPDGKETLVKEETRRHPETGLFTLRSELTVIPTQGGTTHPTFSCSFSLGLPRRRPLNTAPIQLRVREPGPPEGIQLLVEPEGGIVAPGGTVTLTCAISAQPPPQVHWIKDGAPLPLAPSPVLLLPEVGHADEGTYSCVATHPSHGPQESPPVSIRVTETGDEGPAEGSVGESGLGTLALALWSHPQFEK

[9] = molecular target: murine RAGE-strep tag fusion protein (mouse) (UniProt Q62151); experiment: BIACORE capture, SA-Mu RAGE over captured antibody, 1:1 Langmuir global fit, FC3
[10] = molecular target: murine RAGE-strep tag fusion protein (mouse) (UniProt Q62151); experiment: BIACORE capture, SA-Mu RAGE over captured antibody, 1:1 Langmuir global fit, FC4
[11] = molecular target: soluble human streptavidin-tagged RAGE (human) (UniProt Q15109); experiment: BIACORE capture, hRAGE-SA over captured antibody, 1:1 Langmuir global fit, row Average
[12] = molecular target: murine RAGE-strep tag fusion protein (mouse) (UniProt Q62151); experiment: BIACORE capture, SA-Mu RAGE over captured antibody, 1:1 Langmuir global fit, row Average
[13] = molecular target: human RAGE-Fc fusion protein (human) (UniProt Q15109); experiment: ligand competition ELISA, panel Blocks hRAGE-Fc interaction with HMGB1; blocked ligand HMGB1
[14] = molecular target: human RAGE-Fc fusion protein (human) (UniProt Q15109); experiment: ligand competition ELISA, panel Blocks hRAGE-Fc interaction with S100-A; blocked ligand S100-A
[15] = molecular target: human RAGE-Fc fusion protein (human) (UniProt Q15109); experiment: ligand competition ELISA, panel Blocks hRAGE-Fc interaction with S100-B; blocked ligand S100-B
[16] = molecular target: human RAGE-Fc fusion protein (human) (UniProt Q15109); experiment: ligand competition ELISA, panel Blocks hRAGE-Fc interaction with A-beta; blocked ligand amyloid beta 1-42 peptide

Substance: chimeric antibody XT-M4 (from UniProt P01857 1-330)
- EC50 [1]: 0.8 nM
- EC50 [2]: 1.66 nM
- OD450 (hLox1-Fc (human)): 0.017
- OD450 [3]: 3.8
- OD450 (mLox1-Fc (mouse)): 0.01
- OD450 (rhB7-H1-Fc (human)): 0.003
- OD450 (rhICAM-1-Fc (human)): 0.004
- OD450 (rhNCAM-1 (human)): 0.006
- OD450 [4]: 0
- OD450 (rhVCAM-1 (human)): 0.004
- Ka [5]: 1.77e+08 M⁻¹
- Kd [5]: 5.66 nM
- IC50 (read off the curve) [6]: 0.4 µg/mL
- Kd [7]: 7.33 nM
- Kd [8]: 1.9 nM
- Kd [9]: 1.9 nM
- Kd [10]: 2 nM
- Kd [11]: 7.91 nM
- Kd [12]: 1.9 nM
- IC50 (read off the curve) [13]: 0.1 µg/mL
- IC50 (read off the curve) [14]: 0.09 µg/mL
- IC50 (read off the curve) [15]: 0.08 µg/mL
- IC50 (read off the curve) [16]: 0.2 µg/mL
